Biological target: human αvβ1 integrin on cells (human) (UniProt P06756)
Experiment: inhibition of adhesion of BCECF-labelled αvβ1-transfected cells to plate-coated LAP

Chain of human αvβ1 integrin on cells (human) (P06756 31-1048 limits assumed, chain 1 of 2): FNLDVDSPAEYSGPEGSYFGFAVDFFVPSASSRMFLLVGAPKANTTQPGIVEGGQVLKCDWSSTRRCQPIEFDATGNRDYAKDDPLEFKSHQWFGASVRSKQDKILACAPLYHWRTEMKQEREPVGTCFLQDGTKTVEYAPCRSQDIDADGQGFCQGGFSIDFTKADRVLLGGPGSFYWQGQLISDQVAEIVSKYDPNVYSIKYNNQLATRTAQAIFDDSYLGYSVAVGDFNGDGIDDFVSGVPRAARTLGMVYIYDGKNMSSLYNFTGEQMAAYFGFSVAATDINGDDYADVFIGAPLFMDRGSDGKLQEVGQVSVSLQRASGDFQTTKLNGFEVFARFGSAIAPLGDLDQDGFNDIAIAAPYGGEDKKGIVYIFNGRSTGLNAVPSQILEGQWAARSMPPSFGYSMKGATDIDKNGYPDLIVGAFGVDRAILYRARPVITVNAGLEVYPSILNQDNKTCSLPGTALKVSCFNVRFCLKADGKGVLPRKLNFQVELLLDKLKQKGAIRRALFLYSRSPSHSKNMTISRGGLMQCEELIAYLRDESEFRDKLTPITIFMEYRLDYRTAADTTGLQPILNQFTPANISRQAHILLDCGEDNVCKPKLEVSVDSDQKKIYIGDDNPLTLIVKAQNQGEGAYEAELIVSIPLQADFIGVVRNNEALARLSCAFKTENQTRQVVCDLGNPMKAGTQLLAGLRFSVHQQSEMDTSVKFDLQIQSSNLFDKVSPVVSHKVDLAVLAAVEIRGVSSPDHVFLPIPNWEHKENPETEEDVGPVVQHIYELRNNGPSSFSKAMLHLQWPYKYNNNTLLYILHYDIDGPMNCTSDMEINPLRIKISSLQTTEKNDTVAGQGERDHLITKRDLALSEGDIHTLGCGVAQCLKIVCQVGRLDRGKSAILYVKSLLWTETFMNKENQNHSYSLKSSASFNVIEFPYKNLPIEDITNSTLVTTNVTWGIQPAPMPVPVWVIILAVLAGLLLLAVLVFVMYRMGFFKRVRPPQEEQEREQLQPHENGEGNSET
Chain of human αvβ1 integrin on cells (human) (chain, as listed by the source limits assumed, chain 2 of 2): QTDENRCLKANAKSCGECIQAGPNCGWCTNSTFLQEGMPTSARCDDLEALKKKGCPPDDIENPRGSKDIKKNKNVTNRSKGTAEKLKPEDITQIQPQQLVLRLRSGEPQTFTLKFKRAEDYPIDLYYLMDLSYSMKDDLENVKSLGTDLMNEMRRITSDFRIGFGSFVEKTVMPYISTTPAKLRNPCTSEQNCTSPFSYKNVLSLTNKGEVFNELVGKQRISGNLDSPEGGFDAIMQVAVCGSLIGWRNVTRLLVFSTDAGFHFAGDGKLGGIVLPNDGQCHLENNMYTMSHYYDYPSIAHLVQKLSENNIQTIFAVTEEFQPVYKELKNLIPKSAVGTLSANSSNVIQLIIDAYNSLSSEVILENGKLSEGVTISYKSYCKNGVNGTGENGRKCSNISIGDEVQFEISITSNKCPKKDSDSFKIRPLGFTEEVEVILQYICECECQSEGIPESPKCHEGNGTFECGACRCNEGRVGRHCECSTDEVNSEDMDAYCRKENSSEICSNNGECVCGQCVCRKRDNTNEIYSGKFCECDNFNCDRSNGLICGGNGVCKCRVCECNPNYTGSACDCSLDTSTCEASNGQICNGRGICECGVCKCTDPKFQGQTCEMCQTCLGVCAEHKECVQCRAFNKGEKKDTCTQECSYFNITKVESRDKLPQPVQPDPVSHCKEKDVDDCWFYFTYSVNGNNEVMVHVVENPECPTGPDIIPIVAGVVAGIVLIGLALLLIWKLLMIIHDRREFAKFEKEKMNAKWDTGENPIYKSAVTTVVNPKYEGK

IC50: 1 nM
Substance: L230 (pan-αv commercial antibody)

Reference: patent publication US20220195052A1
